Test results as given in US20190085033A1 (published 2019).

Molecular target: BG505-gp120 10MUT-KO (HIV-1, strain BG505)
Test: SPR, monomeric gp120

B1: PGT121 (antibody, V domains shown)
VH: QMQLQESGPGLVKPSETLSLTCSVSGASISDSYWSWIRRSPGKGLEWIGYVHKSGDTNYSPSLKSRVNLSLDTSKNQVSLSLVAATAADSGKYYCARTLHGRRIYGIVAFNEWFTYFYMDVWGNGTQVTVSS
VL: SDISVAPGETARISCGEKSLGSRAVQWYQHRAGQAPSLIIYNNQDRPSGIPERFSGSPDSPFGTTATLTITSVEAGDEADYYCHIWDSRVPTKWVFGGGTTLTVL
notes: also called mature PGT121
For B1, the Kd was 435 nM.
